According to the supplement of paper PMC9170038:

Test system: K4 kissing-loop RNA reporter
Experiment: apparent KD of K4 kissing-loop reporter; higher = weaker reporter binding
Settings: Eterna round: R107
Protocol: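 RNA-MaP round R107: designed RNA switches with theophylline, tryptophan, arginine or FMN aptamers are transcribed on-chip within common flanks. They are titrated with a labelled K4 kissing-loop RNA reporter in RNA-MaP buffer (100 mM Tris pH 7.5, 80 mM KCl, 4 mM MgCl2), without ligand or with the indicated ligand. Median apparent KD per design.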

[1] = input ligand: theophylline 20 uM
[2] = input ligand: tryptophan 2.4 mM
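Also: bound reporter read as fluorescence of individual clusters on recovered sequencing chips by microscopy, with normalized cluster intensities fitted with a binding model.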

Row | Sequence | apparent KD of K4 kissing-loop reporter (input ligand: FMN 200 uM) [nM] | apparent KD of K4 kissing-loop reporter (input ligand: arginine 13.2 mM) [nM] | apparent KD of K4 kissing-loop reporter (input ligand: none) [nM] | apparent KD of K4 kissing-loop reporter [1] [nM] | apparent KD of K4 kissing-loop reporter [2] [nM]
1 | UUGAGACGUCAAGGAUAUUCCGCGGAAGGGCGAGCGACCCAAGUGUGAGUGAUGUUCAGCAAGCCGGAAGAAGGUGAAUUUCACC [theeternabot_sameState_KL_FMN_B_26] | 799 | 628 | 958 | 1050 | 937
2 | UUGAGCCGGACGGAAGUCCGGCUCUGCGAGCGAGGACCGGUACGGCCGCCACUCGGUGCAGUGAUGUUGCAUGGCCGCAAGGCCG [#2 Exclusion - Tryptophan A Attempt #4 (HarryS)] | 270 | 232 | 301 | 208 | 324
3 | UUGGCUGGACGGGAUACCAGCCAAAUCGUGGGCUUGGGAUGUCUAAGAGCCAGUGAUGUUGGCCCUUGGCAGCCCUCCCAGCUUG [Xerirala] | 104 | 97.7 | 95.9 | 75.5 | 113
4 | UUGUAUAGUGGAAGGAGCGCGUGGGCGCAGUGAUGUUGCGCCCGACAUCACUUCAACUUAACGCAGGUAGGUCGCCAUUGUAAUG [Arginine B (Excl) V5] | 131 | 88 | 113 | 104 | 101
5 | UUUAAAUAUAGUGAUGUUAUAUAACAAUGACGAGGACCGGUACGGCCGCCACUCGAGAGAGAUAAUGGUCAUACAAAUGUAUGUC [AstrosSSTryA#7] | 799 | 706 | 1100 | 830 | 564
6 | UUUAACGAGUGAUGUUCGAAAAGUAAUGGUGAGGAUAUCGAUUUUUCGAGAAGGCACCUCGAAGUGAUACGAAAGUAUCGCUUCG [FMN A 4] | 173 | 276 | 261 | 257 | 199
7 | UUUCCAGAUAAGUGGGAACACUCCAUAACAGAGGAUAUCAGAGCGCUGAGAAGGCUGUUUAUCAGUGAUGUUGAUAGUGUGGAGU [FMN A SS t2a] | 171 | 660 | 671 | 786 | 630
8 | UUUCCAGAUAAGUGGGAACGCUCCAUAACAGAGGAUAUCAGAGCGCUGAGAAGGCUGUUUUACAGUGAUGUUGUAAGUGUGGAGC [#10 K4 FMN A Same State] | 158 | 272 | 299 | 282 | 252
9 | UUUGGUUUCUCGGCCGCCACUCGUUGGUAAUGGGCCUCAGGGAUAUAGUGAUGUUAUGUAAAGAAGAGGACCGGGAGAAGGAAGG [ExTryptoB.Dn] | 235 | 229 | 303 | 267 | 156
10 | UUUGGUUUCUCGGCCGCCACUCGUUGGUUAUGGGCUUCAGGGAUAUAGUGAUGUUAUGUAUAGAAGAGGACCGGGAGAAGGUUUU [ExTryptoB.Du] | 215 | 368 | 330 | 434 | 239
11 | UUUGUAGAGGGAAGGAGCGUGAAAGAGAAAGAAUAUAGUGAUGUUAUAUAGAAGAAAGAAUCACAGGUAGGUCGCCCGGAGGAGG [SSArgB.E] | 463 | 436 | 458 | 563 | 295
12 | UUUGUAGUGGGAGGAUAUCCUAAUAUGGGUGAUGUUAGCGAUGUUGAAGGUGUAGUGAUGUUAUGCGGAGAAGGCCCACUGUAGA [BDazzled - #20 - Exc. FMN B] | 543 | 221 | 189 | 614 | 253
13 | UUUUAAAUGUCUGAUACCAGAGAAAAUAUAUGUAGUGAUGUUAUAUACAAAAUAAAUAAGCUCCCUUGGCAGCAGUAUUAAUUUU [AstrosExc-TheB#6] | 679 | 632 | 863 | 725 | 529
14 | UUUUAUAACCGAAGGAGCGCGUGGGCGCAGUGAUGUUGCGCCCGACAUCACUUCAACUUAACGCAGGUAGGUCGCGGUUUUAAUG [Arginine B (Excl) V3] | 148 | 147 | 181 | 163 | 168
15 | UUUUAUUCGUACUUCUAGUGAUGUUAGAUUCGAGGACCGGUACGGCCGCCACUCGUUAAGGCGAUUUUAUAUUUUUUAUUCUUUA [JR_SSTryptoA_Sub012] | 182 | 165 | 179 | 165 | 138
16 | UUUUGGUACUGAGGAUAUUCGACGAAAUAUAGUGAUGUUAUAUAAGGAGGAGGAGGGUGGGAGGAAGGAGAAGGCAGAAGAGGAG [#06 K4 FMN B Exclusion] | 285 | 179 | 238 | 285 | 185
17 | UUUUUAUGCAGUGAUGUUGCUAAUAUAACAGAGGAUAUGCAUUAAUGCAGAAGGCUGAAAUACUAUACUUUAAUAAAUUAAAUUU [JR_SSFMNA_Sub014] | 89.9 | 109 | 85.5 | 134 | 85
18 | UUUUUGGAGAAUUAUAGUGAUGUUAUGAAGGAGGAUAUCUGGAGAUGGAGAAGGCCUAGUGGCUCAGCCCUCGCGGGUGGGUGGG [ExFMNA.aD] | 667 | 518 | 456 | 530 | 426
